Literature values, collected in PMC5855614.

Target: Galectin-3 (Homo sapiens) (UniProt P17931)
Sequence (P17931 2-250): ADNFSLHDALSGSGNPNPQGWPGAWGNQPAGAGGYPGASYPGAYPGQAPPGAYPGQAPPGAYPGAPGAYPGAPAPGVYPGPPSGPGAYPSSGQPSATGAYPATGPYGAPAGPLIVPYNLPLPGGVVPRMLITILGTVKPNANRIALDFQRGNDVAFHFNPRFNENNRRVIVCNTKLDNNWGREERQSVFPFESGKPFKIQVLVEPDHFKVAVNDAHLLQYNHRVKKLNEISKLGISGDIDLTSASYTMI

G3-C12
Kd: 72 nM
